For this assay, the target named is 食蟹猴CEACAM6蛋白 (cynomolgus CEACAM6 protein) (cynomolgus monkey). In words: ELISA, plate-coated cynomolgus CEACAM6 protein.

This passage reports EC50 results from CN115819596A.

As a reminder, the EC50 is the concentration needed to bring the measured effect to its halfway point.

B1: UM05-L9 (antibody, human IgG1, kappa, V domains shown)
VH: QVQLQQSGPELVRPGVSVKISCKGSGYTFTDYAMHWVKQSHAKSLEWIGVISTYSGHTNYNQKFKGKAIMTVDKSSSTAYMDLARLTSEDSAIYYCVRGSTTAHYYTMDFWGQGTSVTVSS
VL: DIQMTQSPVSLSASVGETVTITCGASENIYGTLNWYQRKQGKSPQLLIYGATNLADGVSSRFSGSGSGRQYSLKISSLHPDDVATYYCQNVLSIPYTFGGGTKLEIKR
Molecule B1 came in with an EC50 of 0.463 nM.
